Reference: article PMC6488372 (Molecular microbiology, 2019)

Target: E. coli His-α ΔCTD (His-α Δ235, α 1–234) (E. coli, UniProt P0A7Z4 1-234)
Assay: BLI

B1: LuxR (native, wild-type), purified (natural protein)
chain: MDSIAKRPRTRLSPLKRKQQLMEIALEVFARRGIGRGGHADIAEIAQVSVATVFNYFPTREDLVDEVLNHVVRQFSNFLSDNIDLDIHARENIANITNAMIELVSQDCHWLKVWFEWSASTRDEVWPLFVTTNRTNQLLVQNMFIKAIERGEVCDQHEPEHLANLFHGICYSIFVQANRSKSEAELTNLVSAYLDMLCIYNREHH
Kd: 256 nM
